From paper PMC3691326, “Structure of the Human Telomeric Stn1-Ten1 Capping Complex” (PLoS ONE, 2013) come the findings set out here.

One may read the Kd as the free concentration of one partner at which half of the binding sites on the other are occupied at equilibrium, for simple one-to-one binding.

One series addresses T1, hStn1 (Homo sapiens, UniProt Q9H668 1-368).
T1 sequence: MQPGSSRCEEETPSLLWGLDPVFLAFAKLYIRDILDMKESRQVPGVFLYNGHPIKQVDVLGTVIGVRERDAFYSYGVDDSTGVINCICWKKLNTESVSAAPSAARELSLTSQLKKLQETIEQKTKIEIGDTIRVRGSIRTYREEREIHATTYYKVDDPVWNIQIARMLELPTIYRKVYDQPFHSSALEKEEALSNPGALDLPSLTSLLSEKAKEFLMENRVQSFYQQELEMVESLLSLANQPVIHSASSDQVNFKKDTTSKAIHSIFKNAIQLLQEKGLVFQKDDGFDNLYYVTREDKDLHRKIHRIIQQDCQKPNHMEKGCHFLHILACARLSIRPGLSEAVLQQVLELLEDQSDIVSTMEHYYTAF
Description: fluorescence polarization; FP: 100 mM NaCl, 5 mM MgCl2, 1 mM DTT, 5% glycerol, 1 mg/mL BSA, 2.5 nM 6-FAM DNA, room temperature; pH not stated. To be noted: protein: recombinant; tags: none stated after TEV cleavage (his-MBP fusion removed); single strand.

The next series concerns the target T2, hTen1 (Homo sapiens, UniProt Q86WV5 1-123).
T2 sequence: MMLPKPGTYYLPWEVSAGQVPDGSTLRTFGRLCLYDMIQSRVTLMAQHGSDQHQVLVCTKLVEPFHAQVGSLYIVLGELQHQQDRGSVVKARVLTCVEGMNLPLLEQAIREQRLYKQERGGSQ
Description: fluorescence polarization; not detected; FP: 100 mM NaCl, 5 mM MgCl2, 1 mM DTT, 5% glycerol, 1 mg/mL BSA, 2.5 nM 6-FAM DNA, room temperature; pH not stated. To be noted: protein: recombinant; single strand. On the technique in general: In fluorescence polarisation assays a small probe gives low polarisation when free and higher when bound to something large.

For series [1], the target named is T3, human Stn1, full length, wild type (human, UniProt Q9H668 1-368).
T3 construct: human Stn1 (hStn1), subunit of the human CST complex, full length; The methods describe the his-MBP tag for hStn1N only and say that full-length hStn1 was overexpressed and purified by the same procedure; also called hStn1; hStn1(WT); not shown: His (by 'the same procedure' as hStn1N), N-terminal, cleaved; MBP (by 'the same procedure' as hStn1N), N-terminal, cleaved
T3 sequence (looked up): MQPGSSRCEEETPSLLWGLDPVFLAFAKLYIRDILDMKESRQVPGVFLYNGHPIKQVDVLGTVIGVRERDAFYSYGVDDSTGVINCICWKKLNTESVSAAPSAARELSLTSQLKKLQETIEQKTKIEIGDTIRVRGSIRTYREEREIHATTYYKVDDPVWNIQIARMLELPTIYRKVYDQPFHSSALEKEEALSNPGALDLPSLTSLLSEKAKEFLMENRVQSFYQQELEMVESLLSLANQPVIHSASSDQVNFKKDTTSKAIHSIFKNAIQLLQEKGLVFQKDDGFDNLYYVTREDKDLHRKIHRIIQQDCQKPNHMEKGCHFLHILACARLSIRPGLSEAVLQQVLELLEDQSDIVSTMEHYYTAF
Description: ITC; MicroCal iTC200; hTen1 at 125 µM injected into the cell with hStn1 at 12 µM; 20°C; 300 mM KCl, 25 mM Tris-HCl pH 7.5, 1 mM DTT, 5% glycerol; 2.47 µL injections. To be noted: both partners purified.

Take TTAGGGTTAGGG (ssDNA) [tel12]: in the series with hStn1, the Kd was approximately 1000 nM. For the molecule TTAGGGTTAGGGTTAGGG (ssDNA) [tel18], in the series with hStn1, the Kd was approximately 200 nM. In the case of GTTACGAAATACGGACAC (ssDNA) [rand18], the Kd in the series with hStn1 was approximately 200 nM. For TTAGGGTTAGGGTTAGGGTTAGGGTTAGGG (ssDNA) [tel30], the binding result with hTen1 is given as “no binding”.

B1: human Ten1, full length, wild type (natural protein, UniProt Q86WV5 1-123, looked up)
chain: MMLPKPGTYYLPWEVSAGQVPDGSTLRTFGRLCLYDMIQSRVTLMAQHGSDQHQVLVCTKLVEPFHAQVGSLYIVLGELQHQQDRGSVVKARVLTCVEGMNLPLLEQAIREQRLYKQERGGSQ
notes: human Ten1 (hTen1), subunit of the human CST complex, full length; Purification is described only for the complex with hStn1N (cells mixed before lysis; tags cleaved by TEV); also called hTen1; hTen1(WT); source: E. coli BL21-CodonPlus(DE3) RIPL, purified; not shown: His, N-terminal, cleaved
As for B1, in series [1], binding was put at a Kd of 6.3 nM.

B2: human Ten1 (Y115A), full length (natural protein, UniProt Q86WV5 1-123, looked up)
chain: MMLPKPGTYYLPWEVSAGQVPDGSTLRTFGRLCLYDMIQSRVTLMAQHGSDQHQVLVCTKLVEPFHAQVGSLYIVLGELQHQQDRGSVVKARVLTCVEGMNLPLLEQAIREQRLAKQERGGSQ
notes: human Ten1, full length, with Y115A; also called hTen1(Y115A); source: purified (pure, homogeneous)
For B2, in series [1], binding was put at a Kd of 14 nM.

B3: human Ten1 (R27Q), full length (natural protein, UniProt Q86WV5 1-123, looked up)
chain: MMLPKPGTYYLPWEVSAGQVPDGSTLQTFGRLCLYDMIQSRVTLMAQHGSDQHQVLVCTKLVEPFHAQVGSLYIVLGELQHQQDRGSVVKARVLTCVEGMNLPLLEQAIREQRLYKQERGGSQ
notes: human Ten1, full length, with R27Q; also called hTen1(R27Q); source: purified (pure, homogeneous)
Consider B3, for which, in series [1], the Kd is 33 nM.

B4: human Ten1 (R119Q), full length (natural protein, UniProt Q86WV5 1-123, looked up)
chain: MMLPKPGTYYLPWEVSAGQVPDGSTLRTFGRLCLYDMIQSRVTLMAQHGSDQHQVLVCTKLVEPFHAQVGSLYIVLGELQHQQDRGSVVKARVLTCVEGMNLPLLEQAIREQRLYKQEQGGSQ
notes: human Ten1, full length, with R119Q; also called hTen1(R119Q); source: purified (pure, homogeneous)
Consider B4, for which the Kd in series [1] was found to be 13 nM.
